Test results reported in patent US20220290113A1.

Biological target: Plasmid-expressed Nme2Cas9 (human-codon-optimized, with NLSs and 3xHA tag), expressed in HEK293T cells (Neisseria meningitidis strain Del1444)
Experiment: cell-based or functional assay
Details: scale: mass ratio of Acr plasmid to Nme2Cas9 plasmid

Substance | dose dependence of Acr inhibition of Nme2Cas9 genome editing: mass ratio of cotransfected Acr and Nme2Cas9 plasmids giving full inhibition
AcrIIC1Nme | 2
AcrIIC4Hpa | 1
